According to publication PMC12311017:

Molecular target: USP1/UAF1 (USP1 res. 21-785, G670A + G671A, with UAF1 res. 9-677) (UniProt O94782)
Assay: global kinetic model

Sequence of UniProt O94782 (O94782 21-785 G670A/G671A, chain 1 of 2): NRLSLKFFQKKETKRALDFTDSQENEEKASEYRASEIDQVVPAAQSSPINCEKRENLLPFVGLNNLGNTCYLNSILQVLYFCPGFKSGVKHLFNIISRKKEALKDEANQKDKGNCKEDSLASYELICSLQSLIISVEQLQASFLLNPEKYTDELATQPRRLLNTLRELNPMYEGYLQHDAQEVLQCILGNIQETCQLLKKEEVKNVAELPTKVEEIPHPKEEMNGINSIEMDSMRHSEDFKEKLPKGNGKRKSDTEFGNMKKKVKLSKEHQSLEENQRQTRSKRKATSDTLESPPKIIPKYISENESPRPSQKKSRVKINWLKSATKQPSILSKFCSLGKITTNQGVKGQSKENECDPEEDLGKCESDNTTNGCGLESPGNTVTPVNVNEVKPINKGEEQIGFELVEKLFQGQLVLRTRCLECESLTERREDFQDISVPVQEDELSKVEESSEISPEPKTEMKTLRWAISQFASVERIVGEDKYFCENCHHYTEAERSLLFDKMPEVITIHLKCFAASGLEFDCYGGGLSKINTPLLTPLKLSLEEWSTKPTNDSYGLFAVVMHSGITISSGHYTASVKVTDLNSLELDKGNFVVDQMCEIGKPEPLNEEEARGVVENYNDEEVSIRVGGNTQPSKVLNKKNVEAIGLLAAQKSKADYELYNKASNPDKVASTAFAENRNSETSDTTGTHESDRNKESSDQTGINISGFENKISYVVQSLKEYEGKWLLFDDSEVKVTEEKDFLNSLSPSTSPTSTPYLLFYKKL
Sequence of UniProt O94782 (Q8TAF3 9-677, chain 2 of 2, further chain): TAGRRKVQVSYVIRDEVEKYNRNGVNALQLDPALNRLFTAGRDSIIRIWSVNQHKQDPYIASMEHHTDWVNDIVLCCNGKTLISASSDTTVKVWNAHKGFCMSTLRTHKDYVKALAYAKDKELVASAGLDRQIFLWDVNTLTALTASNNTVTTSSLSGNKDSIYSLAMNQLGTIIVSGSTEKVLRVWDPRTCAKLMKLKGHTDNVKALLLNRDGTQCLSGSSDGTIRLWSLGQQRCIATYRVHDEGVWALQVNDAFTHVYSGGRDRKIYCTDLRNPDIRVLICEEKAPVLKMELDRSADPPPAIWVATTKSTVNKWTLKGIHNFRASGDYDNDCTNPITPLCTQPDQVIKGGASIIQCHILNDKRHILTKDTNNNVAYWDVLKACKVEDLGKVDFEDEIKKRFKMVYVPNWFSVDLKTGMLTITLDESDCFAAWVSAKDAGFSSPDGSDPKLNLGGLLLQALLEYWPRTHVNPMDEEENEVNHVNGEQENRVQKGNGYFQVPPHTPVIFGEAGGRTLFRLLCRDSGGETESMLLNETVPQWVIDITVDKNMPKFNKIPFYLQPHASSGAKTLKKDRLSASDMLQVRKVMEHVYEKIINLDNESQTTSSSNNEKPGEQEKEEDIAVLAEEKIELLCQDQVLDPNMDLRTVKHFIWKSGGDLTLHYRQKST

koff: 1240 s⁻¹
Substance: K63-linked diubiquitinated PCNA (from UniProt P12004 1-261; P0CG47 1-76; P0CG47 1-76) (complex)
